Values of other authors in patent US20050261189A1, “Methods of promoting cardiac cell proliferation” (Hydra Biosciences, Inc., priority 2004, published 2005).

B1: Wnt9b: Wnt polypeptide (protein, UniProt O14905 23-357, looked up)
Protein Wnt-9b: SYFGLTGREVLTPFPGLGTAAAPAQGGAHLKQCDLLKLSRRQKQLCRREPGLAETLRDAAHLGLLECQFQFRHERWNCSLEGRMGLLKRGFKETAFLYAVSSAALTHTLARACSAGRMERCTCDDSPGLESRQAWQWGVCGDNLKYSTKFLSNFLGSKRGNKDLRARADAHNTHVGIKAVKSGLRTTCKCHGVSGSCAVRTCWKQLSPFRETGQVLKLRYDSAVKVSSATNEALGRLELWAPARQGSLTKGLAPRSGDLVYMEDSPSFCRPSKYSPGTAGRVCSREASCSSLCCGRGYDTQSRLVAFSCHCQVQWCCYVECQQCVQEELVYTCKH
B2: Wnt2: Wnt polypeptide (protein, UniProt P09544 26-360, looked up)
Protein Wnt-2: SWWYMRATGGSSRVMCDNVPGLVSSQRQLCHRHPDVMRAISQGVAEWTAECQHQFRQHRWNCNTLDRDHSLFGRVLLRSSRESAFVYAISSAGVVFAITRACSQGEVKSCSCDPKKMGSAKDSKGIFDWGGCSDNIDYGIKFARAFVDAKERKGKDARALMNLHNNRAGRKAVKRFLKQECKCHGVSGSCTLRTCWLAMADFRKTGDYLWRKYNGAIQVVMNQDGTGFTVANERFKKPTKNDLVYFENSPDYCIRDREAGSLGTAGRVCNLTSRGMDSCEVMCCGRGYDTSHVTRMTKCGCKFHWCCAVRCQDCLEALDVHTCKAPKNADWTTAT
B3: Wnt9a: Wnt polypeptide (protein, UniProt O14904 30-365, looked up)
Protein Wnt-9a: YFGLTGSEPLTILPLTLEPEAAAQAHYKACDRLKLERKQRRMCRRDPGVAETLVEAVSMSALECQFQFRFERWNCTLEGRYRASLLKRGFKETAFLYAISSAGLTHALAKACSAGRMERCTCDEAPDLENREAWQWGGCGDNLKYSSKFVKEFLGRRSSKDLRARVDFHNNLVGVKVIKAGVETTCKCHGVSGSCTVRTCWRQLAPFHEVGKHLKHKYETALKVGSTTNEAAGEAGAISPPRGRASGAGGSDPLPRTPELVHLDDSPSFCLAGRFSPGTAGRRCHREKNCESICCGRGHNTQSRVVTRPCQCQVRWCCYVECRQCTQREEVYTCKG
B4: Wnt7a: Wnt polypeptide (protein, UniProt O00755 32-349, looked up)
Protein Wnt-7a: LGASIICNKIPGLAPRQRAICQSRPDAIIVIGEGSQMGLDECQFQFRNGRWNCSALGERTVFGKELKVGSREAAFTYAIIAAGVAHAITAACTQGNLSDCGCDKEKQGQYHRDEGWKWGGCSADIRYGIGFAKVFVDAREIKQNARTLMNLHNNEAGRKILEENMKLECKCHGVSGSCTTKTCWTTLPQFRELGYVLKDKYNEAVHVEPVRASRNKRPTFLKIKKPLSYRKPMDTDLVYIEKSPNYCEEDPVTGSVGTQGRACNKTAPQASGCDLMCCGRGYNTHQYARVWQCNCKFHWCCYVKCNTCSERTEMYTCK
B5: Wnt3: Wnt polypeptide (protein, UniProt P56703 22-355, looked up)
Proto-oncogene Wnt-3: GYPIWWSLALGQQYTSLGSQPLLCGSIPGLVPKQLRFCRNYIEIMPSVAEGVKLGIQECQHQFRGRRWNCTTIDDSLAIFGPVLDKATRESAFVHAIASAGVAFAVTRSCAEGTSTICGCDSHHKGPPGEGWKWGGCSEDADFGVLVSREFADARENRPDARSAMNKHNNEAGRTTILDHMHLKCKCHGLSGSCEVKTCWWAQPDFRAIGDFLKDKYDSASEMVVEKHRESRGWVETLRAKYSLFKPPTERDLVYYENSPNFCEPNPETGSFGTRDRTCNVTSHGIDGCDLLCCGRGHNTRTEKRKEKCHCIFHWCCYVSCQECIRIYDVHTCK
B6: Wnt5b: Wnt polypeptide (protein, UniProt Q9H1J7 18-359, looked up)
Protein Wnt-5b: QLLTDANSWWSLALNPVQRPEMFIIGAQPVCSQLPGLSPGQRKLCQLYQEHMAYIGEGAKTGIKECQHQFRQRRWNCSTADNASVFGRVMQIGSRETAFTHAVSAAGVVNAISRACREGELSTCGCSRTARPKDLPRDWLWGGCGDNVEYGYRFAKEFVDAREREKNFAKGSEEQGRVLMNLQNNEAGRRAVYKMADVACKCHGVSGSCSLKTCWLQLAEFRKVGDRLKEKYDSAAAMRVTRKGRLELVNSRFTQPTPEDLVYVDPSPDYCLRNESTGSLGTQGRLCNKTSEGMDGCELMCCGRGYNQFKSVQVERCHCKFHWCCFVRCKKCTEIVDQYICK
B7: Wnt16: Wnt polypeptide (protein, UniProt Q9UBV4 30-365, looked up)
Protein Wnt-16: NWMWLGIASFGVPEKLGCANLPLNSRQKELCKRKPYLLPSIREGARLGIQECGSQFRHERWNCMITAAATTAPMGASPLFGYELSSGTKETAFIYAVMAAGLVHSVTRSCSAGNMTECSCDTTLQNGGSASEGWHWGGCSDDVQYGMWFSRKFLDFPIGNTTGKENKVLLAMNLHNNEAGRQAVAKLMSVDCRCHGVSGSCAVKTCWKTMSSFEKIGHLLKDKYENSIQISDKTKRKMRRREKDQRKIPIHKDDLLYVNKSPNYCVEDKKLGIPGTQGRECNRTSEGADGCNLLCCGRGYNTHVVRHVERCECKFIWCCYVRCRRCESMTDVHTCK
B8: Wnt1: Wnt polypeptide (protein, UniProt P04628 28-370, looked up)
Proto-oncogene Wnt-1: ANSSGRWWGIVNVASSTNLLTDSKSLQLVLEPSLQLLSRKQRRLIRQNPGILHSVSGGLQSAVRECKWQFRNRRWNCPTAPGPHLFGKIVNRGCRETAFIFAITSAGVTHSVARSCSEGSIESCTCDYRRRGPGGPDWHWGGCSDNIDFGRLFGREFVDSGEKGRDLRFLMNLHNNEAGRTTVFSEMRQECKCHGMSGSCTVRTCWMRLPTLRAVGDVLRDRFDGASRVLYGNRGSNRASRAELLRLEPEDPAHKPPSPHDLVYFEKSPNFCTYSGRLGTAGTAGRACNSSSPALDGCELLCCGRGHRTRTQRVTERCNCTFHWCCHVSCRNCTHTRVLHECL
B9: Wnt7b: Wnt polypeptide (protein, UniProt P56706 25-349, looked up)
Protein Wnt-7b: ALSSVVALGANIICNKIPGLAPRQRAICQSRPDAIIVIGEGAQMGINECQYQFRFGRWNCSALGEKTVFGQELRVGSREAAFTYAITAAGVAHAVTAACSQGNLSNCGCDREKQGYYNQAEGWKWGGCSADVRYGIDFSRRFVDAREIKKNARRLMNLHNNEAGRKVLEDRMQLECKCHGVSGSCTTKTCWTTLPKFREVGHLLKEKYNAAVQVEVVRASRLRQPTFLRIKQLRSYQKPMETDLVYIEKSPNYCEEDAATGSVGTQGRLCNRTSPGADGCDTMCCGRGYNTHQYTKVWQCNCKFHWCCFVKCNTCSERTEVFTCK
B10: Wnt11: Wnt polypeptide (protein, UniProt O96014 25-354, looked up)
Protein Wnt-11: IKWLALSKTPSALALNQTQHCKQLEGLVSAQVQLCRSNLELMHTVVHAAREVMKACRRAFADMRWNCSSIELAPNYLLDLERGTRESAFVYALSAAAISHAIARACTSGDLPGCSCGPVPGEPPGPGNRWGGCADNLSYGLLMGAKFSDAPMKVKKTGSQANKLMRLHNSEVGRQALRASLEMKCKCHGVSGSCSIRTCWKGLQELQDVAADLKTRYLSATKVVHRPMGTRKHLVPKDLDIRPVKDSELVYLQSSPDFCMKNEKVGSHGTQDRQCNKTSNGSDSCDLMCCGRGYNPYTDRVVERCHCKYHWCCYVTCRRCERTVERYVCK
B11: Wnt8b: Wnt polypeptide (protein, UniProt Q93098 23-351, looked up)
Protein Wnt-8b: WSVNNFLMTGPKAYLIYSSSVAAGAQSGIEECKYQFAWDRWNCPERALQLSSHGGLRSANRETAFVHAISSAGVMYTLTRNCSLGDFDNCGCDDSRNGQLGGQGWLWGGCSDNVGFGEAISKQFVDALETGQDARAAMNLHNNEAGRKAVKGTMKRTCKCHGVSGSCTTQTCWLQLPEFREVGAHLKEKYHAALKVDLLQGAGNSAAGRGAIADTFRSISTRELVHLEDSPDYCLENKTLGLLGTEGRECLRRGRALGRWERRSCRRLCGDCGLAVEERRAETVSSCNCKFHWCCAVRCEQCRRRVTKYFCSRAERPRGGAAHKPGRKP
B12: Wnt6: Wnt polypeptide (protein, UniProt Q9Y6F9 25-365, looked up)
Protein Wnt-6: LWWAVGSPLVMDPTSICRKARRLAGRQAELCQAEPEVVAELARGARLGVRECQFQFRFRRWNCSSHSKAFGRILQQDIRETAFVFAITAAGASHAVTQACSMGELLQCGCQAPRGRAPPRPSGLPGTPGPPGPAGSPEGSAAWEWGGCGDDVDFGDEKSRLFMDARHKRGRGDIRALVQLHNNEAGRLAVRSHTRTECKCHGLSGSCALRTCWQKLPPFREVGARLLERFHGASRVMGTNDGKALLPAVRTLKPPGRADLLYAADSPDFCAPNRRTGSPGTRGRACNSSAPDLSGCDLLCCGRGHRQESVQLEENCLCRFHWCCVVQCHRCRVRKELSLCL
B13: Wnt4: Wnt polypeptide (protein, UniProt P56705 23-351, looked up)
Protein Wnt-4: SNWLYLAKLSSVGSISEEETCEKLKGLIQRQVQMCKRNLEVMDSVRRGAQLAIEECQYQFRNRRWNCSTLDSLPVFGKVVTQGTREAAFVYAISSAGVAFAVTRACSSGELEKCGCDRTVHGVSPQGFQWSGCSDNIAYGVAFSQSFVDVRERSKGASSSRALMNLHNNEAGRKAILTHMRVECKCHGVSGSCEVKTCWRAVPPFRQVGHALKEKFDGATEVEPRRVGSSRALVPRNAQFKPHTDEDLVYLEPSPDFCEQDMRSGVLGTRGRTCNKTSKAIDGCELLCCGRGFHTAQVELAERCSCKFHWCCFVKCRQCQRLVELHTCR
B14: Wnt8a: Wnt polypeptide (protein, UniProt Q9H1J5 25-351, looked up)
Protein Wnt-8a: VNNFLITGPKAYLTYTTSVALGAQSGIEECKFQFAWERWNCPENALQLSTHNRLRSATRETSFIHAISSAGVMYIITKNCSMGDFENCGCDGSNNGKTGGHGWIWGGCSDNVEFGERISKLFVDSLEKGKDARALMNLHNNRAGRLAVRATMKRTCKCHGISGSCSIQTCWLQLAEFREMGDYLKAKYDQALKIEMDKRQLRAGNSAEGHWVPAEAFLPSAEAELIFLEESPDYCTCNSSLGIYGTEGRECLQNSHNTSRWERRSCGRLCTECGLQVEERKTEVISSCNCKFQWCCTVKCDQCRHVVSKYYCARSPGSAQSLGKGSA

Test system: one or more non-cardiac cells types
Conditions: cited from earlier work

Row | Molecule | Wnt signaling pathway shown in one or more non-cardiac cell types
1 | Wnt10b: Wnt polypeptide | signal via the canonical pathway
2 | B1 | signal via the canonical pathway
3 | B2 | signal via the canonical pathway
4 | B3 | signal via the canonical pathway
5 | B4 | signal via the canonical pathway
6 | B5 | signal via the canonical pathway
7 | B6 | signal via the non-canonical signaling pathway
8 | B7 | signal via the canonical pathway
9 | B8 | signal via the canonical pathway
10 | B9 | signal via the non-canonical signaling pathway
11 | B10 | signal via the non-canonical signaling pathway
12 | B11 | signal via the canonical pathway
13 | B12 | signal via the canonical pathway
14 | B13 | signal via the non-canonical signaling pathway
15 | B14 | signal via the canonical pathway
